Results: publication PMC4306973 (Scientific Reports, 2015)
Where “and” joins values, the source holds several entries; their conditions need not be identical. Equal values may be shown once.

Target: the molecule itself
Assay: SEC

B1: vanillin dehydrogenase from Corynebacterium glutamicum ATCC13032 (VDH_(ATCC13032)) (enzyme, UniProt Q8NMB0 1-484, looked up)
chain: MTATFAGIDATKHLIGGQWVEGNSDRISTNINPYDDSVIAESKQASIADVDAAYEAAKKAQAEWAATPAAERSAIIYRAAELLEEHREEIVEWLIKESGSTRSKANLEITLAGNITKESASFPGRVHGRISPSNTPGKENRVYRVAKGVVGVISPWNFPLNLSIRSVAPALAVGNAVVIKPASDTPVTGGVIPARIFEEAGVPAGVISTVAGAGSEIGDHFVTHAVPKLISFTGSTPVGRRVGELAINGGPMKTVALELGGNAPFVVLADADIDAAAQAAAVGAFLHQGQICMSINRVIVDAAVHDEFLEKFVEAVKNIPTGDPSAEGTLVGPVINDSQLSGLKEKIELAKKEGATVQVEGPIEGRLVHPHVFSDVTSDMEIAREEIFGPLISVLKADDEAHAAELANASDFGLSAAVWSKDIDRAAQFALQIDSGMVHINDLTVNDEPHVMFGGSKNSGLGRFNGDWAIEEFTTDRWIGIKRS
In the case of B1, the “stoichiometry N” value is reported as 4 and 3 and 2.
